# Paper PMC2199218 (The Journal of Cell Biology, 2002)
# Values joined by “and” are separate entries in the source; they are usually repeats but may differ in a detail not shown here. Equal entries are not always repeated.
# B1: NH2-terminal HA-tagged FLN-B(19–24) (domain or fragment, human, UniProt O75369-1 2009-2602, looked up)
# chain: GRGLSEGRTFEMSDFIVDTRDAGYGGISLAVEGPSKVDIQTEDLEDGTCKVSYFPTVPGVYIVSTKFADEHVPGSPFTVKISGEGRVKESITRTSRAPSVATVGSICDLNLKIPEINSSDMSAHVTSPSGRVTEAEIVPMGKNSHCVRFVPQEMGVHTVSVKYRGQHVTGSPFQFTVGPLGEGGAHKVRAGGPGLERGEAGVPAEFSIWTREAGAGGLSIAVEGPSKAEITFDDHKNGSCGVSYIAQEPGNYEVSIKFNDEHIPESPYLVPVIAPSDDARRLTVMSLQESGLKVNQPASFAIRLNGAKGKIDAKVHSPSGAVEECHVSELEPDKYAVRFIPHENGVHTIDVKFNGSHVVGSPFKVRVGEPGQAGNPALVSAYGTGLEGGTTGIQSEFFINTTRAGPGTLSVTIEGPSKVKMDCQETPEGYKVMYTPMAPGNYLISVKYGGPNHIVGSPFKAKVTGQRLVSPGSANETSSILVESVTRSSTETCYSAIPKASSDASKVTSKGAGLSKAFVGQKSSFLVDCSKAGSNMLLIGVHGPTTPCEEVSMKHVGNQQYNVTYVVKERGDYVLAVKWGEEHIPGSPFHVTVP
# B2: COOH-terminal GFP-tagged FLN-B(19–24) (domain or fragment, human, UniProt O75369-1 2009-2602, looked up)
# chain: GRGLSEGRTFEMSDFIVDTRDAGYGGISLAVEGPSKVDIQTEDLEDGTCKVSYFPTVPGVYIVSTKFADEHVPGSPFTVKISGEGRVKESITRTSRAPSVATVGSICDLNLKIPEINSSDMSAHVTSPSGRVTEAEIVPMGKNSHCVRFVPQEMGVHTVSVKYRGQHVTGSPFQFTVGPLGEGGAHKVRAGGPGLERGEAGVPAEFSIWTREAGAGGLSIAVEGPSKAEITFDDHKNGSCGVSYIAQEPGNYEVSIKFNDEHIPESPYLVPVIAPSDDARRLTVMSLQESGLKVNQPASFAIRLNGAKGKIDAKVHSPSGAVEECHVSELEPDKYAVRFIPHENGVHTIDVKFNGSHVVGSPFKVRVGEPGQAGNPALVSAYGTGLEGGTTGIQSEFFINTTRAGPGTLSVTIEGPSKVKMDCQETPEGYKVMYTPMAPGNYLISVKYGGPNHIVGSPFKAKVTGQRLVSPGSANETSSILVESVTRSSTETCYSAIPKASSDASKVTSKGAGLSKAFVGQKSSFLVDCSKAGSNMLLIGVHGPTTPCEEVSMKHVGNQQYNVTYVVKERGDYVLAVKWGEEHIPGSPFHVTVP
# Columns and labels:
# [1] = biological target: integrin β1A cytoplasmic domain fused to the Gal4 DNA BD (human); assay: two-hybrid
# Chain of integrin β1A cytoplasmic domain fused to the Gal4 DNA BD (human) (P05556 21-798): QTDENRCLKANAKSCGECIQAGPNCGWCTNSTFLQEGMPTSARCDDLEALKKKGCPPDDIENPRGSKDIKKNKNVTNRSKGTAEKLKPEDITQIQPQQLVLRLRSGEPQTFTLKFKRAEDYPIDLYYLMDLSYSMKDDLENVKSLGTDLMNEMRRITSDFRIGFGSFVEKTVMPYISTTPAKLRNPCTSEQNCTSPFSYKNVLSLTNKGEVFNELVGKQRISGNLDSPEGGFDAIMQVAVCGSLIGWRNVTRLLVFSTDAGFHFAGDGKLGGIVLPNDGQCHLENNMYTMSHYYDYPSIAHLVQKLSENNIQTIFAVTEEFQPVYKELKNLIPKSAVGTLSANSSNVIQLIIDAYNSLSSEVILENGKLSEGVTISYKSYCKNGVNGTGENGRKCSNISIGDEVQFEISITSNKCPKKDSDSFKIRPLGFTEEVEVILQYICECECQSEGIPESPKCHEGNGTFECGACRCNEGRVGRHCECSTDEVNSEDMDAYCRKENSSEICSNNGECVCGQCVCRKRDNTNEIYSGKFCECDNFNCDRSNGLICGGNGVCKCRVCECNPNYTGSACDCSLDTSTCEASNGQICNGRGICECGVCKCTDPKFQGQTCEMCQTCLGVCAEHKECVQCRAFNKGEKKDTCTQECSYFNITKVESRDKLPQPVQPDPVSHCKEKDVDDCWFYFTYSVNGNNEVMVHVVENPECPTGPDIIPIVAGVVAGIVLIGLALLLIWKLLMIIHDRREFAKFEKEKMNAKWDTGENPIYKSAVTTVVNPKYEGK
# [2] = biological target: the molecule itself; assay: cross-linking
Molecule,fold binding (β-galactosidase activity) against wild-type filamin-B(19–24) [1],stoichiometry N [2]
"filamin-B_(var-1)(19–24), Gal4 AD fusion (domain or fragment)",2 fold and 3 fold,
B1,,2
B2,,2
